Assay results: patent publication US20230174596A1 (published 2023)

T1: hVEGF-A (8-109) (human, UniProt P15692 214-315)
T1 construct: residue numbers count on mature VEGF-A; dimer
T1 sequence (looked up): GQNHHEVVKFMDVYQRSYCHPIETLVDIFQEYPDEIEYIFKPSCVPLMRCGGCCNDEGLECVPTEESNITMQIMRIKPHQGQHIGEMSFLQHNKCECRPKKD


Biological target: T1, hVEGF-A (8-109)
Assay: spot phage ELISA

Binder | ELISA | S/N
GCPAIQNWKEHPCKQDSDCLAGCVCSWWPSLCG (designed binder) [VEGF_CKP5] | 1.9 | 28.4
GCQRTQPFWGCKQDSDCLAGCVCRWYQSCG (designed binder) [VEGF_CKP9.22] | 1.2 | 17.2
GCNIMLPFWGCSRDFDCLAGCVCQYYQSCG (designed binder) [VEGF_CKP9.54.44] | 2.4 | 34.4
GCNIMLPFWGCSGDFACLAGCVCQYYQSCG (designed binder) [VEGF_CKP9.54.64] | 2.2 | 22.4
GCNIMLPFWGCGPDLQCLAGCVCQYYQSCG (designed binder) [VEGF_CKP9.54.59] | 2.3 | 35.4
GCHLFEPLWGCKQDSDCLAGCVCHWYQSCG (designed binder) [VEGF_CKP9.L1.2] | 1.6 | 12.5
GCNIMLPFWGCGYDLQCLAGCVCQYYQSCG (designed binder) [VEGF_CKP9.54.87] | 2.4 | 26.1
GCNIMLPFWGCGLDYDCLAGCVCQYYQSCG (designed binder) [VEGF_CKP9.54.2] | 0.1 | 26
GCKIMQPLWGCKQDSDCLAGCVCLWYDSCG (designed binder) [VEGF_CKP9.47] | 1 | 14.6
GCDVLQPFWGCKQDSDCLAGCVCHWYQSCG (designed binder) [VEGF_CKP9.2] | 2.4 | 31.1
GCRTPWEPHDITCKQDSDCLAGCVCGPNGFCG (designed binder) [VEGF_CKP11] | 4.1 | 57.5
GCVTPWKPHWINCKQDSDCLAGCVCGPNGFCG (designed binder) [VEGF_CKP13] | 3.5 | 56.3
GCQISQPFWGCKQDSDCLAGCVCHFYNSCG (designed binder) [VEGF_CKP9.3] | 1.6 | 24.5
GCQVMRPFWGCKQDSDCLAGCVCHWYQSCG (designed binder) [VEGF_CKP9.L1.7] | 1.5 | 8.9
GCQLLQPLWGCKQDSDCLAGCVCRWYQSCG (designed binder) [VEGF_CKP9.71] | 1 | 16.5
GCNIMLPFWGCNRDFLCLAGCVCQYYQSCG (designed binder) [VEGF_CKP9.54.48] | 2.5 | 34.9
GCHLLLPLWGCKQDSDCLAGCVCRWYHSCG (designed binder) [VEGF_CKP9.76] | 1.3 | 15.5
GCRLLEPSWGCKQDSDCLAGCVCQWYQSCG (designed binder) [VEGF_CKP9.72] | 0.6 | 10

Binder | ELISA | S/N
GCNIMLPFWGCGKDFHCLAGCVCQYYQSCG (designed binder) [VEGF_CKP9.54.56] | 2.3 | 35.8
GCQLLEPMWGCKQDSDCLAGCVCHWYNSCG (designed binder) [VEGF_CKP9.9] | 1.1 | 19.7
GCQLMQPFWGCKQDSDCLAGCVCHWYQSCG (designed binder) [VEGF_CKP9.L5.18] | 1.6 | 20.4
GCDLMQPLWGCKQDSDCLAGCVCHWYQSCG (designed binder) [VEGF_CKP9.L1.76] | 2.5 | 17.4
GCALLQPLWGCKQDSDCLAGCVCRWYNSCG (designed binder) [VEGF_CKP9.69] | 1 | 14.3
GCKLLQPMWGCKQDSDCLAGCVCRWYQSCG (designed binder) [VEGF_CKP9.14] | 2 | 30.1
GCQLMQPFWGCKQDSDCLAGCVCRWYNSCG (designed binder) [VEGF_CKP9.L5.7] | 1.4 | 18.9
GCKNPLFNWALYCKQDSDCLAGCVCQLFDSCG (designed binder) [VEGF_CKP7.8] | 0.5 | 7.5
GCQLMQPFWGCKQDSDCLAGCVCRWYHSCG (designed binder) [VEGF_CKP9.L5.43] | 0.9 | 13.6
GCQVMQPAWGCKQDSDCLAGCVCHWYQSCG (designed binder) [VEGF_CKP9.L1.8] | 1.2 | 12.8
GCGETVFEQFLWCKQDSDCLAGCVCGPNGFCG (designed binder) [VEGF_CKP2] | 3.2 | 48.1
GCNLMHPFWGCKQDSDCLAGCVCHWYQSCG (designed binder) [VEGF_CKP9.51] | 1 | 11
GCNIMLPFWGCGWDQFCLAGCVCQYYQSCG (designed binder) [VEGF_CKP9.54.51] | 2.5 | 44.5
GCQDPTFNWAEYCKQDSDCLAGCVCQLYQSCG (designed binder) [VEGF_CKP7.19] | 0.6 | 11.1
GCPRILMRCKQDSDCLAGCVCGPNGFCG [EETI-II] | 0.01 | 1.11
GCNPMLPLWGCKQDSDCLAGCVCHWYQSCG (designed binder) [VEGF_CKP9.L1.78] | 3 | 25.1
GCNIMLPFWGCGWSMDCLAGCVCQYYQSCG (designed binder) [VEGF_CKP9.54.76] | 2.7 | 42.2
GCETDWYPHQIDCKQDSDCLAGCVCGPNGFCG (designed binder) [VEGF_CKP1] | 0.9 | 16.9

Results, then the binder that gave them:

ELISA | S/N | Binder
3.7 | 31.8 | GCNPMLPFWGCKQDSDCLAGCVCHWYQSCG (designed binder) [VEGF_CKP9.L1.57]
2.3 | 32.5 | GCNIMLPFWGCGTNFLCLAGCVCQYYQSCG (designed binder) [VEGF_CKP9.54.31]
2.3 | 19.9 | GCNVLLPLWGCKQDSDCLAGCVCHWYQSCG (designed binder) [VEGF_CKP9.L1.64]
2.5 | 23.5 | GCNIMLPFWGCQADYACLAGCVCQYYQSCG (designed binder) [VEGF_CKP9.54.14]
0.8 | 13.4 | GCWDPTFNWALYCKQDSDCLAGCVCQMYDSCG (designed binder) [VEGF_CKP7.24]
2.4 | 30.8 | GCNIMLPFWGCGVDYLCLAGCVCQYYQSCG (designed binder) [VEGF_CKP9.54.16]
1.1 | 14.1 | GCDRMQPYWGCKQDSDCLAGCVCQWYKSCG (designed binder) [VEGF_CKP9.11]
2 | 23.2 | GCDIMQPLWGCKQDSDCLAGCVCHWYQSCG (designed binder) [VEGF_CKP9.L1.68]
2.4 | 38.8 | GCNIMLPFWGCGPELNCLAGCVCQYYQSCG (designed binder) [VEGF_CKP9.54.12]
1.2 | 10 | GCQVLQPSWGCKQDSDCLAGCVCHWYQSCG (designed binder) [VEGF_CKP9.L1.79]
2.4 | 29.9 | GCNIMLPFWGCGQSFECLAGCVCQYYQSCG (designed binder) [VEGF_CKP9.54.1]
3.9 | 59.4 | GCQLMHPFWGCKQDSDCLAGCVCHWYRSCG (designed binder) [VEGF_CKP8]
2.5 | 21.7 | GCNIMLPFWGCGKELNCLAGCVCQYYQSCG (designed binder) [VEGF_CKP9.54.69]
1.4 | 11.6 | GCHRLQPLWGCKQDSDCLAGCVCHWYQSCG (designed binder) [VEGF_CKP9.L1.19]
1.2 | 21.5 | GCDDPSFDWSVYCKQDSDCLAGCVCRMYDSCG (designed binder) [VEGF_CKP7.2]
2.6 | 35.3 | GCKKWQWWYMCKQDSDCLAGCVCYPWTECG (designed binder) [VEGF_CKP4]
0.8 | 13.4 | GCQDPTVNWAVYCKQDSDCLAGCVCQFYQSCG (designed binder) [VEGF_CKP7.17]
1.2 | 18.4 | GCKLFEPLWGCKQDSDCLAGCVCRWYESCG (designed binder) [VEGF_CKP9.96]
